Reference: the DeepSol protein solubility set

Experiment: soluble on expression in E. coli; label from the status in PepcDB or PDB records

Sequence | soluble on expression in E. coli
MGSDKIHHHHHHMKKLIDYLKANKITEVECVISDMTGIARGKIAPVDKFIDEKGMRLPESVLLQTVTGDYVDDDLYDSLLDKADIDFVCVPDENAVFMLPWTVEATAQVIHDTFDKMGNPIELSPRNLLKKVLKLYEDKGWKPVIAPEMEFYLTHRNSDPDMPLIPPVGRSGRKESGRQSFSIDAANEYDPLFEDMYDWCEAQGLDIDTLIHEEGTAQMEINFSHGDALSLADQVFVFKRTLREAALKHDVCATFMAKPVTDEPGSAMHIHQSVVDIKTGKNIFTNEDGTKSAKFLCYIGGLQKYIPELLPLMAPNVNSFRRFLPGTSAPVNLEWGDENRTCGLRIPESSPQNRRIENRIAGADANSYLAIAATLLCGYMGMVEDVKPSTPVQGRANENRQGISLPLTLEEALAVMSESSAVREYLGDTFTSGYIAVKQADLENFRRVISSWEREFLLLTV | not soluble
MQPSHPSQPSHADRAAPTSALAPVVPPVLAEVVRSGFVEGRHRGSLVVLGADGAVELALGEVTAPVFPRSSNKPMQAAGVLRAGLDLAGERLALAAASHSGEPFHRDLVRKMLDEYGLDPALLQCPPDLPLDAEERETYLASGAEPDRVTMNCSGKHTAMLAVCAQQGWPLETYLDPEHPLQRVIHRVVEDAAGEPVAAVGTDGCGAPLMAISLVGLARAFRSFVAAEPGSAERRVADAMRAHPEYVAGSRRADTWLMREVPGSLSKMGAEAVQAVALPDGRALAFKIEDGATRALGPVLARALTLLGVDAPVVGRIGRAPLLGGGREVGEIRASFLEHHHHHH | not soluble
MGSDKIHHHHHHMTLKIEHLTGGYTGVPVIKDINLEIKPGEALGLIGLNGAGKSTTIKHILGLLRPQKGKIILNDVVLTQQPTKFKREVAYIPETPILYPELTLKEHLELTMLSYKLDEKKAWERAHELLKMFRLDDKLEWLPIHFSKGMRQKVMIVSAFLADTSLLVIDEPFTGLDPLAVANLIDLIKQAIANNKMVLMTTHVLADAQQAISNYAVLNNGTIEIIGNLQDIREHYGLKPDDPFDKLYLALNREDHGNA | not soluble
SVLLSRELHPVAPLLDNLISALNKVYQRKGVNISMDISPEISFVGEQNDFVEVMGNVLDNACKYCLEFVEISARQTDDHLHIFVEDDGPGIPHSKRSLVFDRGQRADTLRPGQGVGLAVAREITEQYAGQIIASDSLLGGARMEVVFGRQHPTQKEE | soluble
MSLTLDELDSHLFKCADIIRDAVDPTDYKEYILPLVFYKAISDEYEQEREEIVEEYGEDFADNANLYDVPIVPEGHRWNDLRQESENVDEAINNAFTEFTQANPDLSGIFNANFMEAGGLTDDRLIKLVEHLSTYDLDRDSVPPDMLGEAYMDLVRHFAEEEGKSGGQFFTPPHIVQLCVRLVDDFADGMTFHDPTVGSGGMLTEAAKYYREAQGGDPSKLTFTGQEINPDIAAIARMNLSLHTLNGEIERGDSLASPGFTDGDDLERFDRVLANFPFSADWAKDDLQDDQYGRFDWHTKLPRADRGDYAFIMHIAEQLKEPDCGDESGGKAAIVIPHGVLFRKHEQRYRQPMLENDLVEAIVGLPENLFQNNSIPSAILVLNTDKPADREGEVQFIHAADEAFYEELSNQNELTDDGLDHIVENFDDWTTEERVSRTVGIEEIEENDFNLNIALYVDTTEPEEDIDVNEELAELRELQAEREEIESRMTEHMEALQYE | soluble
MSLSDLPDDIFQIIVKKLGDEDFNHLGPIIRSNKRGRDIGLSREILKSANLMGMCLHPPNIFPGQLFRNFFVRCLEFENATAMYYEAIRLIVREENVMGSLFLLNQLVPTYDYATIAYAFFQMCAGRGDLAGTTFDTIFEQNSVSRWGSIYSFELEVKCEALIDTIMDFQPHFGMTFAPDWKFASSDCLSISECPDWHGVEYFCEGCYIYYVALRILEVL | soluble
MSLQPNDITFFQRFQNDILAGRKTITIRDASESHFKAGDVLRVGRFEDDGYFCTIEVTGTSTVTLDTLNEKHAQQENMSLDELKRVIAEIYPNQTQFYVIDFKCLEGHHHHHH | soluble
KKNNVYPELEAFIGKEIIFSDKNFNTVGNKAFKDQFLLISYVDSGNCTPCSLEKMQYMKTNKRRLLDTHTGVLMIVHEKDTFTVNEVFRQMHVSYPIFFDSLGCFKKENGIFDNPLYQDFVIDRSNKVVWLGNPLRNKQSWQQYEKAISMLMD | not soluble
MAESKAKNMFQKLSLTPKRNHEHDAGRNIETEEELLQKLKRLKLDNDYLHMWLSYEKLATIVENRSTDKTRKPEYGKLIFYYQGAAHALVSIWKRDSDLPFEQYISGDIARLFNKALDVAIRHMDPTVVHTIARDGGVALMSIDKPIEARDVLVRGENHLVAVPADGQLDFLERLIVLYYIMDSILIEERWNEYMVYTDKVWMMTMKEDKRCPLLENIIKEVEQVAVLLLVFQRKVECSERHKQLLASYRLDDWKAPIIKHNPPLSSLNPSEQKVFRRFLFYMMSNKRSVDKVLKHR | not soluble
MKQQGTTLPANNHTLKQYAFFAGMLSSLKKQKWRKGMSESLHLTRNGSILEITLDRPKANAIDAKTSFEMGEVFLNFRDDPQLRVAIITGAGEKFFSAGWDLKAAAEGEAPDADFGPGGFAGLTEIFNLDKPVIAAVNGYAFGGGFELALAADFIVCADNASFALPEAKLGIVPDSGGVLRLPKILPPAIVNEMVMTGRRMGAEEALRWGIVNRVVSQAELMDNARELAQQLVNSAPLAIAALKEIYRTTSEMPVEEAYRYIRSGVLKHYPSVLHSEDAIEGPLAFAEKRDPVWKGR | not soluble
MENNLAEFERRAEKNLLIMCKEKEKLQKKAHELKRRLLLSQRKRELADVLDAQIEMLSPFEAVATRFKEQYRTFATALDTTRHELPVRSIHLEGDGQQLLDALQHELVTTQRLLGELDVGDSEENVQVLDLLSELKDVTAKKDLELRRSFAQVLELSAEASKEAALANQEVWEETQGMAPPSRWYFNQDSACRESGGAPKNTPLSEDDNPGASSAPAQATFISPSEDFSSSSQAEVPPSLSRSGRDLS | soluble
GGSVIVIDSKAAWDAQLAKGKEEHKPIVVDFTATWCGPCKMIAPLFETLSNDYAGKVIFLKVDVDAVAAVAEAAGITAMPTFHVYKDGVKADDLVGASQDKLKALVAKHAAA | soluble
MPNDLPFDLRPSRRTVTMGLAAGVAAALLPWRAQALDTGTARALVVEAVAQVNRTINSGKSEGQMYADFERLFARYADVPAIARTALGVAARSASRQEISAFTQAYQGYIARKYGKRFREFIGSEIKVNDARPMKSAVEVISTAYLRNENPFEVRWHVSDRSGRPAFFNIIIEGVNMLASERAEVGALLDRNRGSIPALTEQLRRASLEHHHHHH | not soluble
MGSDKIHHHHHHMELSSPSKKTTTSPINIPGGNRDNLIIGPHSHSFKTDPFSSNNSSLLSKISTNPSLESPFSSKSLLDCSPVQAVKKSLESEAKTHSLDEETNEQTDVKILNIADFPTDELILMISALLNRIITANDETTDVSQQVSDETEDELLTPILAFYGKNVPEIAVVQYLERIQKYCPTTNDIFLSLLVYFDRISKNYGHSSERNGCAKQLFVMDSGNIHRLLITGVTICTKFLSDFFYSNSRYAKVGGISLQELNHLELQFLILCDFKLLVSVEEMQKYANLLYKFWNDQ | not soluble
MTAPKVFVSHASEDKARFVVDFARRLRENGVDAWLDQWEMKPGDSLVDKIFEEGLREARAVVIVLSATSVRKPWVREELNASVVNRISRGTKLIPVVIDDCDVPEALRSTVLEHHHHHH | not soluble
MARDGAVYACQSCGAVQTKWSGQCSACQSWNTLVEEVSAKPPGALSATKATRVRGLQFTGLESETAPPPRILTGVDEFDRVCGGGVVPGSALLIGGDPGVGKSTLLLQVCASAAARGVSCAYISGEEAVEQIRGRADRMGLAKANVSLAAETALRDILDGLKRDNFDLVVIDSIQTMWSDAHEAGPGTVTQVRACATELVRLAKKKGVAILLVGHVTKDGQIAGPRVVEHLVDAVLSFEGERGYPFRILRGAKNRFGATDEIGVFEMGDVGLREVKNPSALFLNEGGERAAGAAVFAGIEGSRPVLVEFQALVAPSAYGTPRRAVVGWDSGRLAMVLAVLEARCGLGFGDKDVYLNVAGGLRITEPAADLAAAAALASSALDVALPQDCVVFGELSLSGEVRPVSRMETRLKEAAKLGFGRALGPLAGLPEGGGALPVAGVARLTDAVRRIGDEIWTSLTLEHHHHHH | not soluble
MEQRTRLALLKEIAEFLNEETEMYSMTQGALKYLIEGSNFTTGWIFFINSVGEHELVSHVALPQSLTADHCHYIKDGSCWCVKAFNQRRLMKASNIVNCSRINLASKAFPSQNDNITHHATVPLKSGQEQFGILNVASPNTEIYSDEDLELLESVAFQLGSAIKRIYLTDREKEAAKINERNRLARDLHDSVNQMLFSVKLTAHAAYGMSNESIAKQAFKTIEKTSQNAVNEMRALIWQLKPVGLEQGLIHALTAYSKLMHIQLNVNVEGLIDLSNEIEENIYRALQECINNVKKHADTNKMDLTLKQMNDILYIDVIDYGQGFEIDNVQIASSHGINNIKQRVKLLRGKVTFHSQPTKGTQIQFTIPIK | not soluble
MAHTITIVGLGNYGIDDLPLGIYKFLKTQDKVYARTLDHPVIESLQDELTFQSFDHVYEAHDQFEDVYNDIVAQLVEAANEKDIVYAVPGHPRVAETTTVKLLALAKDNTDIDVKVLGG | soluble
MQSAKPLFDYPKYWAECFGPAPFLPMSREEMDLLGWDSCDIIIVTGDAYVDHPSFGMAIIGRLLESQGFRVGIIAQPNWQSKDDFMKLGEPNLFFGVAAGNMDSMINRYTADKKIRSDDAYTPGGMAGKRPDRASLVYSQRCKEAYKHVPIVLGGIEASLRRIAHYDYWQDKVRNSILIDACADILLYGNAERAIVEVAQRLSYGHKIEDITDVRGTAFIRRDTPQGWYEVDSTRIDRPGKVDKIINPYVNTQDTQACAIEQEKGNVEDPNEAKVVQILASPRMTRDKTVIRLPSVEKVRNDAVLYAHANRVLHLETNPGNARALVQKHGEVDVWFNPPPIPMTTDEMDYVFGMPYARVPHPAYGKEKIPAYDMIRFS | not soluble
GIDPFTMLSSGDLTSASWELVVRVDHANGEQQTEITLRVSGDLHIGGVMLKLVEQMNIAQDWSDYALWWEQKRCWLLKTHWTLDKCGVQADANLLFTPQHKM | soluble
MSLEIERYIVPKETWPEIIIPVEVQEYIGERKELNLAEELLDRNIREGRGRKVAVYFEDRRVTYRDLYRLSNKIANFLVGIGVQPYDRVGFRTRNMPEAIAVNFGIMKAGAIPVPLNPMWAGKEVSFVSNNAEIKALFVSGDERVFPAVNEVKDEIKTAKAMVVMDGEKEGFIPFSEVTAESAKFDPILLKIGTPALILYTSGTTGLPKGCVHFVENVISSVYLVGKHVWKLTPDDVVGGPAPVSFAMGYGNGCLIPYFHGAAASIWPRFSVENFFKYVEEHGITVFSSLPTSYRMILADPKLEEYMNKYDISSLRLFTGGGEALGAETAKRWKEVFGMDIYESLGATEMLHICIANACAPKPVAGSIGFPVPGYIAKIVDPETGKECGADEVGSLYIKGPTGIRYWNHPSRDLSEKQAKSVKNGWNVLGDFVRKDENGYIYFVSRDDDLIKSSGYRIGPDEIEQPLNTHPAVAECAVIGVPDPEGIRGQVVKAIIRLKEGYTPDEKLKEDILAFLEKHIAKYKLPRIIEFTDKPLPRTPTGKLLRRLLKQSEGHHHHHH | not soluble
MGSDKIHHHHHHMKVYLSFDYELYFGAKSGSADACIIEPAKLLLEIAARHAVHLNFFIDSGYLLALEKYSKRYPSVAYEKQQVFKQIRELAAAGHDCQLHIHPHWEDSYYDGNGWKMNTNRYRLDHFPDAQIEQIVQSYYDITKDIAGKAPIAYRAGGWCMPPWNKVSAVFKKLGIWIDSTVYEKGYLQEGQIAFDFRKAPASDQWMFETDPVTEAPFGYFLELPISSISCSPLFFWNLYVRGRLNRSLHAGMGDGLPMAQPGTKKKLLTRYTQQALSCDGYYASLLTEEFYKRKAKGEDTMVVIGHPKAQSKFSVQALDTFISTVKDSAAFARYSDLQKD | not soluble
